Source: patent US20050064593A1 (WALTER AND ELIZA HALL INSTITUTE OF MEDICAL RESEARCH, published 2005)

B1: Bmf (Bcl-2 modifying factor), mouse, wild-type, as used in the yeast 2-hybrid system (other)
chain: MEPPQCVEELEDDVFQSEDGEPGTQPGGLLSADLFAQSQLDCPLSRLQLFPLTHCCGPGLRPISQEDKATQTLSPASPSQGVMLPCGVTEEPQRLFYGNAGYRLPLPASFPAGSPLGEQPPEGQFLQHRAEVQIARKLQCIADQFHRLHTQQHQQNRDRAWWQVFLFLQNLALNRQENREGVGPW
notes: The clone first isolated with Mcl-1 as bait was a partial one lacking the 5' end; Mouse bmf was later subcloned as bait; also called the novel protein; not shown: GAL4 domain of the yeast 2-hybrid vector (pAD-GAL4-2.1 for the library clone, a pGBT-9 derivative for Bmf as bait); limi
B2: Bmf A69P mutant as tested in yeast (other)
chain: MEPPQCVEELEDDVFQSEDGEPGTQPGGLLSADLFAQSQLDCPLSRLQLFPLTHCCGPGLRPISQEDKPTQTLSPASPSQGVMLPCGVTEEPQRLFYGNAGYRLPLPASFPAGSPLGEQPPEGQFLQHRAEVQIARKLQCIADQFHRLHTQQHQQNRDRAWWQVFLFLQNLALNRQENREGVGPW
notes: Yeast construct of the mutant is not described further; not shown: GAL4 domain of the yeast 2-hybrid vector
B3: Bmf AAA mutant (D67K68A69:>AAA) as tested in yeast (other)
chain: MEPPQCVEELEDDVFQSEDGEPGTQPGGLLSADLFAQSQLDCPLSRLQLFPLTHCCGPGLRPISQEAAATQTLSPASPSQGVMLPCGVTEEPQRLFYGNAGYRLPLPASFPAGSPLGEQPPEGQFLQHRAEVQIARKLQCIADQFHRLHTQQHQQNRDRAWWQVFLFLQNLALNRQENREGVGPW
notes: Yeast construct of the mutant is not described further; also called AAA mutation; not shown: GAL4 domain of the yeast 2-hybrid vector

Columns and labels:
[1] = molecular target: T1, mouse Mcl-1 lacking its hydrophobic C-terminus (yeast 2-hybrid bait in pGBT-9) (mouse, UniProt P97287 1-307); test: yeast 2-hybrid screen
T1 construct: not shown: GAL4 domain of pGBT-9
T1 sequence (P97287 1-307): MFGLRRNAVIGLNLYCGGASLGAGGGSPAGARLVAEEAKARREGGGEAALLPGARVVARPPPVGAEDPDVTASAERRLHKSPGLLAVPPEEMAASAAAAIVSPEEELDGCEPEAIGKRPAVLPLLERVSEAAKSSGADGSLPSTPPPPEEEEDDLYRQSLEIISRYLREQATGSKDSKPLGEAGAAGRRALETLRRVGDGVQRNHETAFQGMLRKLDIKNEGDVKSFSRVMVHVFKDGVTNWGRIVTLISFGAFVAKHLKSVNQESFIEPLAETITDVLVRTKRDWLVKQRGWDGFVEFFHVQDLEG

[2] = molecular target: mouse dynein light chain 2 (DLC2) (mouse, UniProt Q9D0M5 1-89); test: yeast 2-hybrid
mouse dynein light chain 2 (DLC2), sequence (Q9D0M5 whole entry): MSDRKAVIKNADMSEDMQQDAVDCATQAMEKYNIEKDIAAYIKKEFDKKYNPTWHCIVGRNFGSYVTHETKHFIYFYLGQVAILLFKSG

| binding result [1] | binding result [2] | Binder |
| --- | --- | --- |
| binds | – | B1 |
| – | no binding | B2 |
| – | no binding | B3 |
